Data taken from patent publication EP4631523A2.

How the values were obtained:
interleukin 6 (IL-6) [1] = target: interleukin 6 (IL-6) (UniProt P05231); assay: IL-6 binding ELISA; 40±2°C, 0 months
interleukin 6 (IL-6) [2] = target: interleukin 6 (IL-6) (UniProt P05231); assay: IL-6 binding ELISA; 25±2°C, 3 months
interleukin 6 (IL-6) [3] = target: interleukin 6 (IL-6) (UniProt P05231); assay: IL-6 binding ELISA; 25±2°C, 3 months; remark: listed apart in the source
interleukin 6 (IL-6) [4] = target: interleukin 6 (IL-6) (UniProt P05231); assay: IL-6 binding ELISA; 25±2°C, 0 months
interleukin 6 (IL-6) [5] = target: interleukin 6 (IL-6) (UniProt P05231); assay: IL-6 binding ELISA; 25±2°C, 3 months; remark: listed apart in the source
interleukin 6 (IL-6) [6] = target: interleukin 6 (IL-6) (UniProt P05231); assay: IL-6 binding ELISA; 5±3°C, 3 months
interleukin 6 (IL-6) [7] = target: interleukin 6 (IL-6) (UniProt P05231); assay: IL-6 binding ELISA; 40±2°C, 1 month
interleukin 6 (IL-6) [8] = target: interleukin 6 (IL-6) (UniProt P05231); assay: IL-6 binding ELISA; 40±2°C, 3 months
interleukin 6 (IL-6) [9] = target: interleukin 6 (IL-6) (UniProt P05231); assay: IL-6 binding ELISA, relative to a Phase I DS lot; 120 mg/mL formulation without methionine, 9 months at 2 to 8°C
interleukin 6 (IL-6) [10] = target: interleukin 6 (IL-6) (UniProt P05231); assay: IL-6 binding ELISA; 40±2°C, 0 months; remark: listed apart in the source
interleukin 6 (IL-6) [11] = target: interleukin 6 (IL-6) (UniProt P05231); assay: IL-6 binding ELISA; 25±2°C, 0 months; remark: listed apart in the source
interleukin 6 (IL-6) [12] = target: interleukin 6 (IL-6) (UniProt P05231); assay: IL-6 binding ELISA; 25±2°C, 6 months
interleukin 6 (IL-6) [13] = target: interleukin 6 (IL-6) (UniProt P05231); assay: IL-6 binding ELISA; 40±2°C, 0 months; remark: listed apart in the source
interleukin 6 (IL-6) [14] = target: interleukin 6 (IL-6) (UniProt P05231); assay: IL-6 binding ELISA; 5±3°C, 9 months
interleukin 6 (IL-6) [15] = target: interleukin 6 (IL-6) (UniProt P05231); assay: IL-6 binding ELISA; 25±2°C, 6 months; remark: listed apart in the source
interleukin 6 (IL-6) [16] = target: interleukin 6 (IL-6) (UniProt P05231); assay: IL-6 binding ELISA; 25±2°C, 6 months; remark: listed apart in the source
interleukin 6 (IL-6) [17] = target: interleukin 6 (IL-6) (UniProt P05231); assay: IL-6 binding ELISA; 5±3°C, 9 months; remark: listed apart in the source
interleukin 6 (IL-6) [18] = target: interleukin 6 (IL-6) (UniProt P05231); assay: IL-6 binding ELISA; 40±2°C, 3 months; remark: listed apart in the source
interleukin 6 (IL-6) [19] = target: interleukin 6 (IL-6) (UniProt P05231); assay: IL-6 binding ELISA; 40±2°C, 0 months; remark: listed apart in the source
interleukin 6 (IL-6) [20] = target: interleukin 6 (IL-6) (UniProt P05231); assay: IL-6 binding ELISA; 5±3°C, 9 months; remark: listed apart in the source
interleukin 6 (IL-6) [21] = target: interleukin 6 (IL-6) (UniProt P05231); assay: IL-6 binding ELISA; 5±3°C, 1 month
interleukin 6 (IL-6) [22] = target: interleukin 6 (IL-6) (UniProt P05231); assay: IL-6 binding ELISA; 5±3°C, 0 months
interleukin 6 (IL-6) [23] = target: interleukin 6 (IL-6) (UniProt P05231); assay: IL-6 binding ELISA; 5±3°C, 6 months
interleukin 6 (IL-6) [24] = target: interleukin 6 (IL-6) (UniProt P05231); assay: IL-6 binding ELISA; 25±2°C, 1 month
interleukin 6 (IL-6) [25] = target: interleukin 6 (IL-6) (UniProt P05231); assay: IL-6 binding ELISA, relative to a Phase I DS lot; 20 mg/mL formulation without methionine, T0 (frozen aliquot)
interleukin 6 (IL-6) [26] = target: interleukin 6 (IL-6) (UniProt P05231); assay: IL-6 binding ELISA; 5±3°C, 12 months
interleukin 6 (IL-6) [27] = target: interleukin 6 (IL-6) (UniProt P05231); assay: IL-6 binding ELISA; 5±3°C, 3 months; remark: listed apart in the source
interleukin 6 (IL-6) [28] = target: interleukin 6 (IL-6) (UniProt P05231); assay: IL-6 binding ELISA; 40±2°C, 3 months; remark: listed apart in the source
interleukin 6 (IL-6) [29] = target: interleukin 6 (IL-6) (UniProt P05231); assay: IL-6 binding ELISA; 5±3°C, 1 month; remark: listed apart in the source
interleukin 6 (IL-6) [30] = target: interleukin 6 (IL-6) (UniProt P05231); assay: IL-6 binding ELISA; 5±3°C, 0 months; remark: listed apart in the source
interleukin 6 (IL-6) [31] = target: interleukin 6 (IL-6) (UniProt P05231); assay: IL-6 binding ELISA; 5±3°C, 0 months; remark: listed apart in the source
interleukin 6 (IL-6) [32] = target: interleukin 6 (IL-6) (UniProt P05231); assay: IL-6 binding ELISA; 5±3°C, 3 months; remark: listed apart in the source

Sequence of UniProt P05231 (P05231 30-212 limits assumed): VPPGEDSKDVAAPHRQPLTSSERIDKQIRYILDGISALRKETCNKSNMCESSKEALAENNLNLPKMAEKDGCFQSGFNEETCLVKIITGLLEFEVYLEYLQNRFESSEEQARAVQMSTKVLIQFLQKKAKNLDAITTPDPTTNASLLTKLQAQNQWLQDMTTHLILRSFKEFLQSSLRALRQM

B1: COR-001 antibody (antibody, human IgG1, kappa, V domains shown)
VH: EVQLVESGGGLVQPGGSLRLSCAASGFTISSNYMIWVRQAPGKGLEWVSDLYYYAGDTYYADSVKGRFTMSRDISKNTVYLQMNSLRAEDTAVYYCARWADDHPPWIDLWGRGTLVTVSS
VL: DIQMTQSPSTLSASVGDRVTITCRASQGISSWLAWYQQKPGKAPKVLIYKASTLESGVPSRFSGSGSGTEFTLTISSLQPDDFATYYCQQSWLGGSFGQGTKLEIKR
Interleukin 6 (IL-6) [1]
  IL-6 binding ELISA (% of Reference Standard): 91%
Interleukin 6 (IL-6) [2]
  IL-6 binding ELISA (% of Reference Standard): 97%
Interleukin 6 (IL-6) [3]
  IL-6 binding ELISA (% of Reference Standard): 84%
Interleukin 6 (IL-6) [4]
  IL-6 binding ELISA (% of Reference Standard): 97%
Interleukin 6 (IL-6) [5]
  IL-6 binding ELISA (% of Reference Standard): 91%
Interleukin 6 (IL-6) [6]
  IL-6 binding ELISA (% of Reference Standard): 83%
Interleukin 6 (IL-6) [7]
  IL-6 binding ELISA (% of Reference Standard): 89%
Interleukin 6 (IL-6) [8]
  IL-6 binding ELISA (% of Reference Standard): 99%
Interleukin 6 (IL-6) [9]
  IL-6 binding ELISA (% of assay control): 79%
Interleukin 6 (IL-6) [10]
  IL-6 binding ELISA (% of Reference Standard): 97%
Interleukin 6 (IL-6) [11]
  IL-6 binding ELISA (% of Reference Standard): 94%
Interleukin 6 (IL-6) [12]
  IL-6 binding ELISA (% of Reference Standard): 88%
Interleukin 6 (IL-6) [13]
  IL-6 binding ELISA (% of Reference Standard): 96%
Interleukin 6 (IL-6) [14]
  IL-6 binding ELISA (% of Reference Standard): 85%
Interleukin 6 (IL-6) [15]
  IL-6 binding ELISA (% of Reference Standard): 100%
Interleukin 6 (IL-6) [16]
  IL-6 binding ELISA (% of Reference Standard): 92%
Interleukin 6 (IL-6) [17]
  IL-6 binding ELISA (% of Reference Standard): 89%
Interleukin 6 (IL-6) [18]
  IL-6 binding ELISA (% of Reference Standard): 97%
Interleukin 6 (IL-6) [19]
  IL-6 binding ELISA (% of Reference Standard): 103%
Interleukin 6 (IL-6) [20]
  IL-6 binding ELISA (% of Reference Standard): 98%
Interleukin 6 (IL-6) [21]
  IL-6 binding ELISA (% of Reference Standard): 86%
Interleukin 6 (IL-6) [22]
  IL-6 binding ELISA (% of Reference Standard): 97%
Interleukin 6 (IL-6) [23]
  IL-6 binding ELISA (% of Reference Standard): 83%
Interleukin 6 (IL-6) [24]
  IL-6 binding ELISA (% of Reference Standard): 96%
Interleukin 6 (IL-6) [25]
  IL-6 binding ELISA (% of assay control): 61%
Interleukin 6 (IL-6) [26]
  IL-6 binding ELISA (% of Reference Standard): 98%
Interleukin 6 (IL-6) [27]
  IL-6 binding ELISA (% of Reference Standard): 93%
Interleukin 6 (IL-6) [28]
  IL-6 binding ELISA (% of Reference Standard): 78%
Interleukin 6 (IL-6) [29]
  IL-6 binding ELISA (% of Reference Standard): 94%
Interleukin 6 (IL-6) [30]
  IL-6 binding ELISA (% of Reference Standard): 103%
Interleukin 6 (IL-6) [31]
  IL-6 binding ELISA (% of Reference Standard): 96%
Interleukin 6 (IL-6) [32]
  IL-6 binding ELISA (% of Reference Standard): 85%
